Experiment [1] addresses T1, human latent myostatin (human, UniProt O14793 25-266; O14793 267-375).
T1 construct: non-covalent complex of two propeptides and the mature homodimer; also called human myostatin latent form
T1 sequence 1: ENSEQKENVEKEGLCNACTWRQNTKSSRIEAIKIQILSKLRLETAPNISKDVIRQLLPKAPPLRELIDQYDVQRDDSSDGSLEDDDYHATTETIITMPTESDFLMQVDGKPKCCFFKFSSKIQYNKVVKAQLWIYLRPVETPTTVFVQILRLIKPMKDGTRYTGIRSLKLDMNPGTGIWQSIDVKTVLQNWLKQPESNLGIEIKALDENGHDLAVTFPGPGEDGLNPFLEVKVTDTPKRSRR
T1 sequence 2: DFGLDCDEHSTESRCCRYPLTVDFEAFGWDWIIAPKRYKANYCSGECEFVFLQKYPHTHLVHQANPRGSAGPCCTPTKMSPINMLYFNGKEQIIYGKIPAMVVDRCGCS
In words: SPR, dissociation phase at pH5.8. A general note: Surface plasmon resonance follows binding to a sensor surface in real time, without labels.

The target in experiment [2] is T1, human latent myostatin. The experiment in a line: SPR, dissociation phase at pH5.8. This is another data set of the same source.
The target of experiment [3] is T2, human Fc gamma RIIaR extracellular domain, His-tagged (human, UniProt P12318 34-217).
T2 construct: also called FcgRIIaR; human Fc gamma RIIa (type R)
T2 chain: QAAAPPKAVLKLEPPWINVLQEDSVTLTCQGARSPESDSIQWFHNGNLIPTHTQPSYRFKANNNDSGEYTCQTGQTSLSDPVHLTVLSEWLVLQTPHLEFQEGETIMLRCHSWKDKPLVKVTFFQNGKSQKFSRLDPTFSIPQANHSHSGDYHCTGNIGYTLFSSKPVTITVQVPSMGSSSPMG
In words: SPR 25C.

In experiment [4] the target is T3, human Fc gamma RIIIaV extracellular domain, His-tagged (human, UniProt P08637 17-208).
T3 construct: also called FcgRIIIaV
In words: SPR 25C.

The koff is the rate constant with which the complex falls apart. A low value points to slow dissociation.

T3 sequence (P08637 17-208 F176V): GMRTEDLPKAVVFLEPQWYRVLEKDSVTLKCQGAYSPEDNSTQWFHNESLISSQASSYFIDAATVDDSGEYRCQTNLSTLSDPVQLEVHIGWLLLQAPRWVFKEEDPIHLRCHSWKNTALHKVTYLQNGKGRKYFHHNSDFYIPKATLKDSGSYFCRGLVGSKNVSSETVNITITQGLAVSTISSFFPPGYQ

B1: Ab002 (M103205H001/M103202L000) (antibody, V domains shown)
VH: QVTLKESGPVLVKPTETLTLTCTVSGIDLSHYDISWVRQAPGKGLEWVGIISYAGSTYYASWAKGRLTISKDTSKNQVVLTMTNMDPVDTATYYCARGVPAYSTGGDLWGQGTLVTVSS
VL: DIVMTQSPATLSLSPGERATLSCQSSQSVYDNNWLSWFQQKPGQPPKLLIYWASTLASGVPSRFSGSGSGTDFTLTISSLQPEDAATYYCAGGYGGGLYAFGQGTKVEIKR
notes: variant of MS1032LO00-SG1
In the case of B1, the “fold faster dissociation rate at pH5.8 than Ab001” value with human latent myostatin [1] was found to be 200 fold. The molecule also displayed a koff with human latent myostatin [2] of 0.00609 s⁻¹.

B2: GpH7-B3 G237D/GpL16-k0 (antibody, human IgG1, kappa)
heavy: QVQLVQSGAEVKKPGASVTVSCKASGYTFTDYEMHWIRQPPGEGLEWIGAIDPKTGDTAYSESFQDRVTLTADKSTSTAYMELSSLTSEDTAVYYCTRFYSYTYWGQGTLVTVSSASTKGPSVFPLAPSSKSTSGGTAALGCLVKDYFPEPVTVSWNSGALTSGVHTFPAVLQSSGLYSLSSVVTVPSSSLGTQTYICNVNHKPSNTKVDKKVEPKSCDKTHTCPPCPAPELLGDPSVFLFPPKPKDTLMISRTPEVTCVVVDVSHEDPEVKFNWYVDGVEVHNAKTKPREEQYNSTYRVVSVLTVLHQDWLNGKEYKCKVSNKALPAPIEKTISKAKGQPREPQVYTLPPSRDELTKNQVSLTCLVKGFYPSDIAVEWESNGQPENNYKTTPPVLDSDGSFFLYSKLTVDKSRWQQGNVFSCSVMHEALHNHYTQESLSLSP
light: DIVMTQSPLSLPVTPGEPASISCQASESLVHSNRNTYLHWYLQKPGQSPQLLIYKVSNRFSGVPDRFSGSGSGTDFTLKISRVEAEDVGVYYCSQNTHVPPTFGQGTKVEIERTVAAPSVFIFPPSDEQLKSGTASVVCLLNNFYPREAKVQWKVDNALQSGNSQESVTEQDSKDSTYSLSSTLTLSKADYEKHKVYACEVTHQGLSSPVTKSFNRGEC
notes: copies: 2 + 2
As for B2, the relative binding in experiment [3] and in experiment [4] was 0 parent B3=100 in each case.

Source of the values: patent EP4755449A2 (CHUGAI SEIYAKU KABUSHIKI KAISHA, dated 2026).
